The text below walks through data of patent US20250163168A1, “NOVEL ANTIBODIES AND ANTIBODY CONJUGATES FOR THE TREATMENT OF METABOLIC DISORDERS” (PFIZER INC., priority 2023, published 2025).

The test deals with biotinylated human FcRn (hFcRn) (human) (UniProt P55899). Description: human FcRn affinity column, pH gradient 5.5 to 8.8; retention time relative to the assay control mAb-A (N = 2).
biotinylated human FcRn (hFcRn) (human), sequence (P55899 24-297 limits assumed, form in doubt, chain 1 of 2): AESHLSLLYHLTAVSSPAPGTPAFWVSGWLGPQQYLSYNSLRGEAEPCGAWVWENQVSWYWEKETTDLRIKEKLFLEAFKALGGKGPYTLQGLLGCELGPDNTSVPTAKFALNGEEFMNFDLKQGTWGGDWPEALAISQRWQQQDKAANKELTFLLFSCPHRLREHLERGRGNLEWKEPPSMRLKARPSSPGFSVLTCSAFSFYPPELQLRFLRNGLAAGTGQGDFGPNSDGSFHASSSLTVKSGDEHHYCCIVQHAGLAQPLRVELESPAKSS
biotinylated human FcRn (hFcRn) (human), sequence (chain, as listed by the source limits assumed, form in doubt, chain 2 of 2): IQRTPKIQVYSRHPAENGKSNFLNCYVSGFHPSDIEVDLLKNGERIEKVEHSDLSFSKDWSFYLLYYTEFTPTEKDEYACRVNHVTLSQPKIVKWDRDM

On to “negative control (polyreactivity assays) (antibody)”, for which the hFcRN Relative Retention Time is 0.8.

For “positive control (polyreactivity assays) (antibody)”, the hFcRN Relative Retention Time is 4.15.
